Experimental data reported in publication doi:10.1101/2023.10.30.564768, “The LexA-RecA* structure reveals a lock-and-key mechanism for SOS activation” (bioRxiv, 2023).

Legend:
[1] = molecular target: T1, His-RecA WT, activated as RecA* (nucleoprotein filament on ssDNA with ATPγS) (E. coli, UniProt P0A7G6 1-353); test: fluorescence polarisation; competition, fluorescence anisotropy; unlabeled LexA K156A or QM (140 nM to 18.3 µM) spiked into pre-formed RecA* alongside LexA Q161δ; three-parameter dose-response fit; details: both partners purified
T1 construct: RecA, E. coli; source: E. coli ΔrecA BLR(DE3), purified (cobalt resin, ammonium sulfate, heparin); not shown: poly-His, N-terminal, kept
T1 sequence (looked up): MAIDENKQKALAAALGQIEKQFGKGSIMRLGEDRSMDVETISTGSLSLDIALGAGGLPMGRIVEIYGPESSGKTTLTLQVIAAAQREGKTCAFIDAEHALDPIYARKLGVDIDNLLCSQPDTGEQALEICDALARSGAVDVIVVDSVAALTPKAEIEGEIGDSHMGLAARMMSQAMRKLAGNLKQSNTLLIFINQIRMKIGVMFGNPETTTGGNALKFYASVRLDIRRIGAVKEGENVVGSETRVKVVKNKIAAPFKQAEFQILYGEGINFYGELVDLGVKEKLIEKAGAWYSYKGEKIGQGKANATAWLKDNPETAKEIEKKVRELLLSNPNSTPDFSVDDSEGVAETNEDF

[2] = molecular target: the molecule itself; test: cryo-EM structure; RecA* pre-formed from 5 µM His-RecA WT and 1 µM GGT 90-mer ssDNA in 70 mM Tris-HCl pH 7.5, 150 mM NaCl, 1 mM MgCl2, 2 mM TCEP, 0.25 mM ATPγS, 20 min; LexA K156A added to 25 µM, 30 min, room temperature

B1: His-LexA K156A (natural protein, E. coli, UniProt P0A7C2 1-202, looked up)
chain: MKALTARQQEVFDLIRDHISQTGMPPTRAEIAQRLGFRSPNAAEEHLKALARKGVIEIVSGASRGIRLLQEEEEGLPLVGRVAAGEPLLAQQHIEGHYQVDPSLFKPNADFLLRVSGMSMKDIGIMDGDLLAVHKTQDVRNGQVVVARIDDEVTVARLKKQGNKVELLPENSEFKPIVVDLRQQSFTIEGLAVGVIRNGDWL
notes: LexA repressor, E. coli; source: E. coli BL21(DE3), purified (cobalt resin, heparin)
B1: binds [1].

B2: untagged LexA K156A (full-length, catalytically inactive) (natural protein, E. coli, UniProt P0A7C2 1-202, looked up)
chain: MKALTARQQEVFDLIRDHISQTGMPPTRAEIAQRLGFRSPNAAEEHLKALARKGVIEIVSGASRGIRLLQEEEEGLPLVGRVAAGEPLLAQQHIEGHYQVDPSLFKPNADFLLRVSGMSMKDIGIMDGDLLAVHKTQDVRNGQVVVARIDDEVTVARLKKQGNKVELLPENSEFKPIVVDLRQQSFTIEGLAVGVIRNGDWL
notes: LexA repressor, E. coli; Used for cryo-EM only; source: E. coli BL21(DE3), purified (cobalt resin, heparin; His-tag removed with thrombin); not shown: poly-His, N-terminal, cleaved
B2: binds [2].

B3: LexA quad-mutant (QM): L89P, Q92W, E152A, K156A (natural protein, E. coli, UniProt P0A7C2 1-202, looked up)
chain: MKALTARQQEVFDLIRDHISQTGMPPTRAEIAQRLGFRSPNAAEEHLKALARKGVIEIVSGASRGIRLLQEEEEGLPLVGRVAAGEPLPAQWHIEGHYQVDPSLFKPNADFLLRVSGMSMKDIGIMDGDLLAVHKTQDVRNGQVVVARIDDAVTVARLKKQGNKVELLPENSEFKPIVVDLRQQSFTIEGLAVGVIRNGDWL
notes: LexA repressor, E. coli; also called LexA QM; hyperactive LexA variant; source: E. coli BL21(DE3), purified (cobalt resin, heparin)
B3 was tested, and the “fold weaker binding relative to LexA K156A” value [1] was about 8 fold.
